Assay results published in US20260167703A1.
Positions count from the first letter of the chain named.

B1: DENV2-3H11 (antibody, V domains shown)
VH: QSVEESGGRLVTPGTPLTLTCTVSGFSLINYDMSWIRQAPGKGLEWIGMVSGGGHTNYASWANGRFTISKTSSTTMDLKITSPTTEDTASYFCGRWDIWGPGTLVTVSL
VL: AVVVTQTASPVSAAVGGTVTISCQSSQSVYDDNWLAWYQQKPGQPPKQLIYRASRLASGVPSRFSGTGSGTQFTLTISGVQCDDAATYYCLGGYVDDGDTTFGGGTEVVVK
B2: DENV2-8D8 (antibody, V domains shown)
VH: QSLEESGGRLVKPDETLTLTCTVSGIDLSSTIITWVRQAPGKGLEYIGIIGSSGSIISANWAKGRFTISRTSTTVDLKMTSLTTEDTATYFCARIAWSTGRNDIWGPGTLVTVSS
VL: AAVLTQTPPSVSAAVGGTVTISCQSSQSVYNNNALSWYQQKPGQPPKLLIYLASNLASGVPSRFSGSGSGTQFTLTISGVQCDDAATYHCLGVDDDDVDNTFGGGTEVVVK
B3: DENV2-5F4 (antibody, V domains shown)
VH: QSVEESGGRLVKPDETLTLTCTVSGIDLSNTVISWVRQAPGKGLEYIGMITPSGSAYSATWAKGRVTISRTSTTVDLKIASPTTEDTATYFCARIAWSTGRNDIWGPGTLVTVSS
VL: B2 VL with S22K, L52Q, N55K, A57S, P61S, Q72H, H89Y, V93I, D94Y, K111G
B4: DENV4-7D5 (antibody, V domains shown)
VH: QSVEESGGRLVTPGTPLTLTCTVSGIDLSSWEMGWVRQAPGKGLEWIGIIFPSGTIYYANWAKGRFAISKASTTVDLKITSPTTEDTATYFCGRHGGSLYLNIWGPGTLVTVSL
VL: AQVLTQTPSPVSAAVGGTVTINCQASQSVYVNRNLAWYQQKPGQPPKVLIYEASKLASGVPSRFKGSGSGTQFTLTISGVQCDDAATYYCQGEFGCSSADCIAFGGGTEVVVK
B5: DENV4-8C7 (antibody, V domains shown)
VH: B4 VH with W31Y, A67T, A71T
VL: B4 VL
B6: DENV4-9G8 (antibody, V domains shown)
VH: QSLEESGGGLVKPGASLTLTCTASGFSFSYRYWMSWVRQAPGKRPEWIACIDTGNGDTYYASRAKGRFTIMKTSSTTVTLQMTSLTVADTATYFCARSDVTLTGYGYGNLWGPGTLVTVSS
VL: DSVMTQTPASVSEPVGGTVTINCQASHNIYNSLAWYQQKPGQPPKLLIYRASTLESGVPSRVKGSGYGTEYTLTISDLECADAATYYCQQYYGGDDDGFGFGGGTEVVVK
B7: DENV4-7F2 (antibody, V domains shown)
VH: QSVEESGGRLVTPGTPLTLTCTVSGIDLSYYAMGWVRQAPGEGLECIGFIDTGDSAYYASWAKGRFTISKTSSTTVDLKITSPTPEDTATYFCGRSLSSYYDWDAFDPWGPGTLVTVSS
VL: AYDMTQTPASVEVAVGGTVTINCQASQTIGNLLAWYQQKPGQRPKLLIYRASTLASGVPSRFKGSGSGTQFTLTISGVECADAATYYCQQGASANDIDNSFGGGTAVVVK
B8: DENV4-10A11 (antibody, V domains shown)
VH: QSVEESGGRLVTPGTPLTLTCTVSGINLSFYAMGWVRQAPGKGLECVGFIDTDNSAYYASWAKGRFTISKTSTTVDLKITSPTTEDTATYFCARSLSSFYDWDAFDPWGPGTLVTVSS
VL: B7 VL with N22K, Q24L, T28S, G30S, A94N, N95S, S100A, A106E
B9: DENV4-5B11 (antibody, V domains shown)
VH: QSVEESGGRLVTPGTPLTLTCTVSGFSLSDSAMSWVRQAPGKGLEWIGYIYAGSGTTYYASWAKGRFTISKTSTTVDLKITSPTTEDTATYFCARATAYVGYGYGDDTFDPWGPGTLVTVSS
VL: AYDMTQTPASVEVAVGGTVTIKCQASQSISSYLSWYQQKPGQRPKLLIYRASTLASGVSSRFKGSGSGTEFTLTISGVQCDDAATYYCQQGYSNSDVDNVFGGGTEVVVK
B10: DENV4-7G4 (antibody, V domains shown)
VH: B9 VH with D30S, S31C, S34T, A52V, G53D, G55D, K71T, K79R, A96T, Y102G
VL: DVVMTQTPASVEAAVGGTVTINCQASQNINSYLSWYQQKPGQRPKLLIYRAFTLASGVSSRFKGSGSGTQFTLTISGVECADAATYYCQQGYSFSGVDNVFGGGTEVVVK

target: DENV-2 VLP (Dengue virus serotype 2, strain Thailand/16681/84); assay: Luminex, VLP-coupled beads

| Binder | EC50 |
| --- | --- |
| B1 | 0.0354 µg/mL |
| B2 | 0.011 µg/mL |
| B3 | 0.0095 µg/mL |

target: DENV-2 VLP (Dengue virus serotype 2, strain Thailand/16681/84); assay: not given

| Binder | Response (nm) | koff |
| --- | --- | --- |
| B1 | 2.02 nm | < 2e-05 s⁻¹ |
| B2 | 0.756 nm | < 2e-05 s⁻¹ |
| B3 | 1.5 nm | < 2e-05 s⁻¹ |

target: DENV-2 E protein Domain III (Dengue virus serotype 2, strain Thailand/16681/1984); assay: BLI, mAb on AR2G biosensor, 20 ug/mL Domain III, 1200 sec

| Binder | Response (nm) |
| --- | --- |
| B1 | -0.00452 nm |
| B2 | 0.0246 nm |
| B3 | 0.0206 nm |

target: DENV-4 E protein Domain III (Dengue virus serotype 4, strain Indonesia/1036/1976); assay: as above

| Binder | Response (nm) |
| --- | --- |
| B4 | -0.007 nm |
| B5 | -0.014 nm |
| B6 | 0.264 nm |
| B7 | -0.005 nm |
| B8 | 0.012 nm |
| B9 | 0.02 nm |
| B10 | -0.001 nm |
